The values that follow come from paper PMC5427921 (2017).

Among the targets are PRL3 C49A (human, UniProt O75365 1-169, C49A); PRL3 D72A (human, UniProt O75365 1-169, D72A); PRL3 L108A (human, UniProt O75365 1-169, L108A); PRL3 C104S (human, UniProt O75365 1-169, C104S); PRL3 C104A (human, UniProt O75365 1-169, C104A); PRL3 C49S (human, UniProt O75365 1-169, C49S); PRL3 R138E (human, UniProt O75365 1-169, R138E).
Test in all cases: ITC
A general note: In ITC the heat of successive injections is recorded.

For test [1], the target named is PRL3 with the catalytic cysteine (Cys104) mutated to glutamic acid (human, UniProt O75365 1-169, Cys104 to glutamic acid).
The target in test [2] is PRL3 with Arg138 mutated to alanine (human, UniProt O75365 1-169, Arg138 to alanine).
Test [3] concerns the target CBS-pair domain of human CNNM3 (GST tag removed) (human, UniProt Q8NE01 309-452).

B1: CNNM3 CBS-pair domain as a GST fusion (domain or fragment)
chain: LRCRTVEDVLTPLEDCFMLDASTVLDFGVLASIMQSGHTRIPVYEEERSNIVDMLYLKDLAFVDPEDCTPLSTITRFYNHPLHFVFNDTKLDAVLEEFKRGKSHLAIVQKVNNEGEGDPFYEVLGLVTLEDVIEEIIRSEILDE
For B1, the Kd (as a rule, the concentration at which binding is half-saturated) worked out at 72 nM in the test with PRL3 C49A; 215 nM with PRL3 D72A; 2800 nM in test [1]; 1700 nM in the test with PRL3 L108A; 1400 nM in the test with PRL3 C104S; 320 nM in [2]. The Kd with PRL3 C104A was 180 nM; with PRL3 C49S, 105 nM; with PRL3 R138E, 530 nM.

B2: PRL2 phosphatase (as used in ITC) (enzyme)
chain: MNRPAPVEISYENMRFLITHNPTNATLNKFTEELKKYGVTTLVRVCDATYDKAPVEKEGIHVLDWPFDDGAPPPNQIVDDWLNLLKTKFREEPGCCVAVHCVAGLGRAPVLVALALIECGMKYEDAVQFIRQKRRGAFNSKQLLYLEKYRPKMRLRFRDTNGHCCVQ
The molecule B2 registered a Kd in test [3] of 11 nM.
